Measurements published in US20220372155A1 (LYVGEN BIOPHARMA, published 2022).

What was measured:
[1] = molecular target: T1, human CD40 expressed on CHO cells (human, UniProt P25942 21-277); experiment: FACS, CHO cells
T1 construct: whole, on cells; also used for the reporter cells over-expressing human CD40; also called cellular CD40; CHO-CD40 cells

[2] = molecular target: T2, human PD-1 expressed on CHO cells (human, UniProt Q15116 25-288); experiment: FACS, CHO cells
T2 construct: whole, on cells; also used for human PD-1 on Jurkat reporter cells; also called Jurkat/NFkB-Luci/PD-1 cells

[3] = molecular target: T3, Ly090 (human CD40 ECD protein with His tag) (human, UniProt P25942 21-193); experiment: bridging ELISA, coated CD40 ECD-His, soluble PD-1 ECD-mFc
T3 construct: extracellular domain; also called human CD40 ECD protein (His tag); recombinant human CD40; not shown: His tag
Procedure: (§1) Briefly, human CD40 ECD protein (His tag) was diluted and coated onto an ELISA plate with a volume of […] by incubation at 4° C. overnight. […] After 1-hour incubation at room temperature, HRP-conjugated anti-Mouse IgG (H+L) antibody was added into the plate at 100 μL/well. The plate was incubated for 1 hour at room temperature followed by washing. TMB substrate solution was added at 100 μL/well and the color development was stopped by adding 100 uL/well Stop Solution (2N H2SO4). Absorbance at 450 nm and 620 nm was read by Tecan F200 Pro plate reader. GraphPad 7.0, “[Agonist] vs. response—Variable slope (four parameters)” was used to plot the binding data and calculate binding EC50 values.

[4] = molecular target: T4, Human PD-1-ECD protein (mouse IgG2a Fc tag) (human, UniProt Q15116 25-170); experiment: as above
T4 construct: extracellular domain; also called soluble human recombinant PD-1; not shown: mouse IgG2a Fc tag
Procedure: as §1

Measured: binding result

T1 sequence (P25942 21-277): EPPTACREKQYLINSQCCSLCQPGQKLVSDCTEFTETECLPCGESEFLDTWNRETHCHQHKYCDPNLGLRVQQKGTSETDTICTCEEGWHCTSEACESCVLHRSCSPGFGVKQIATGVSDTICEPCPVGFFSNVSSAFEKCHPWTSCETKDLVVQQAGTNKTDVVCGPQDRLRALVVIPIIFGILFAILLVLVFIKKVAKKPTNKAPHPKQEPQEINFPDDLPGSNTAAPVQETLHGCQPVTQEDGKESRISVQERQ
T3 sequence (P25942 21-193): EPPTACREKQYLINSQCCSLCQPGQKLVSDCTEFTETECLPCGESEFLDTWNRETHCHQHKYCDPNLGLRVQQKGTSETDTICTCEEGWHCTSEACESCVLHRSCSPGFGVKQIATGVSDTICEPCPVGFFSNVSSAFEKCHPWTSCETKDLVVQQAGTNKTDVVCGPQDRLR
T4 sequence (Q15116 25-170): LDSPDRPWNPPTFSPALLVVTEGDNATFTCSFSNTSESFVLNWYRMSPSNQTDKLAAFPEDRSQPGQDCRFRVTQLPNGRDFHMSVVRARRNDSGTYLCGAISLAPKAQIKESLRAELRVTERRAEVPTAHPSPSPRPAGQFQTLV
T2 sequence (Q15116 25-288): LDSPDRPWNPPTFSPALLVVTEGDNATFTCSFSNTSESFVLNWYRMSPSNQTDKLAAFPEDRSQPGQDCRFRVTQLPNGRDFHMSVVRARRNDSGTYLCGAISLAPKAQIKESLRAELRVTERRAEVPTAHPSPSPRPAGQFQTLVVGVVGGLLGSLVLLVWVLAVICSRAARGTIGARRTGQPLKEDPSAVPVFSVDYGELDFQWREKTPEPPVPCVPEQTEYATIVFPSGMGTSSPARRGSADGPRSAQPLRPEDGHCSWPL

B1: Ly520 (bispecific antibody, human IgG1, kappa)
heavy: QVTLKESGPALVKPTQTLTLTCTFSGFSLSTSGTCVSWIRQPPGKALEWLATICWEDSKGYNPSLKSRLTISKDTSKNQAVLTMTNMDPVDTATYYCARREDSGYFWFPYWGQGTLVTVSSASTKGPSVFPLAPSSKSTSGGTAALGCLVKDYFPEPVTVSWNSGALTSGVHTFPAVLQSSGLYSLSSVVTVPSSSLGTQTYICNVNHKPSNTKVDKKVEPKSCDKTHTCPPCPAPELLGPSVFLFPPKPKDTLMISRTPEVTCVVVDVSHEDPEVKFNWYVDGVEVHNAKTKPREEQYNSTYRVVSVLTVLHQDWLNGKEYKCKVSNKALPAPIEKTISKAKGQPREPQVYTLPPSREEMTKNQVSLTCLVKGFYPSDIAVEWESNGQPENNYKTTPPVLDSDGSFFLYSKLTVDKSRWQQGNVFSCSVMHEALHNHYTQKSLSLSPGK
light: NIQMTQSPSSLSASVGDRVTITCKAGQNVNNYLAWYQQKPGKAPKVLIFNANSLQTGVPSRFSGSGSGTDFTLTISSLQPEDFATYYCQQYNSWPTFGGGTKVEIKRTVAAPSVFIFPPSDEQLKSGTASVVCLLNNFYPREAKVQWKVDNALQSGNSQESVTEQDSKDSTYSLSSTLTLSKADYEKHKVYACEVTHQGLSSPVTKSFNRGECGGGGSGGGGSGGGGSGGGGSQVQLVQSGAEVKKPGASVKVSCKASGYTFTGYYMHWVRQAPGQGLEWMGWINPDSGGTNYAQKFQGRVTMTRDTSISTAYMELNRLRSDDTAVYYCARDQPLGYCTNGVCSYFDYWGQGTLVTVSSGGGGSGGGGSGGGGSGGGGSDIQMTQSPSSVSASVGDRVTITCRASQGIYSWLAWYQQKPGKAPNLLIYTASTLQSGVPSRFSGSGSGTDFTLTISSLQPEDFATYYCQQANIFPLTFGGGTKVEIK
notes: Ly516 HC (IgG1 mutated Fc) + Ly516 LC-Ly253 scFv VH-VL
binds: all assays above

B2: Ly606 (bispecific antibody, human IgG1, kappa)
heavy: QVTLKESGPALVKPTQTLTLTCTFSGFSLSTSGTCVSWIRQPPGKALEWLATICWEDSKGYNPSLKSRLTISKDTSKNQAVLTMTNMDPVDTATYYCARREDSGYFWFPYWGQGTLVTVSSASTKGPSVFPLAPSSKSTSGGTAALGCLVKDYFPEPVTVSWNSGALTSGVHTFPAVLQSSGLYSLSSVVTVPSSSLGTQTYICNVNHKPSNTKVDKKVEPKSCDKTHTCPPCPAPELLGPSVFLFPPKPKDTLMISRTPEVTCVVVDVSHEDPEVKFNWYVDGVEVHNAKTKPREEQYNSTYRVVSVLTVLHQDWLNGKEYKCKVSNKALPAPIEKTISKAKGQPREPQVYTLPPSREEMTKNQVSLTCLVKGFYPSDIAVEWESNGQPENNYKTTPPVLDSDGSFFLYSKLTVDKSRWQQGNVFSCSVMHEALHNHYTQKSLSLSPGGGGGSGGGGSGGGGSGGGGSDIQMTQSPSSLSASVGDRVTITCKASQNIYIYLNWYQQKPGKAPKLLIYNTNNLQTGVPSRFSGSGSGTDFTLTISSLQPEDFATYYCLQHSSRRTFGGGTKVEIKGGGGSGGGGSGGGGSGGGGSQVQLVESGGGLVQPGGSLKLSCATSGFNFNDYFMNWVRQASGKGLEWVGQIRNKNYNYATYYTESLEGRVTISRDDSKNTAYLQMNSLKTEDTAVYYCTSYYYDGFADYFDYWGQGTTVTVSS
light: NIQMTQSPSSLSASVGDRVTITCKAGQNVNNYLAWYQQKPGKAPKVLIFNANSLQTGVPSRFSGSGSGTDFTLTISSLQPEDFATYYCQQYNSWPTFGGGTKVEIKRTVAAPSVFIFPPSDEQLKSGTASVVCLLNNFYPREAKVQWKVDNALQSGNSQESVTEQDSKDSTYSLSSTLTLSKADYEKHKVYACEVTHQGLSSPVTKSFNRGEC
notes: Ly516 HC (IgG1 mutated Fc)-TM740 scFv VL-VH + Ly516 LC
binds: all assays above

B3: Ly609 (bispecific antibody, human IgG1, kappa)
heavy: QVTLKESGPALVKPTQTLTLTCTFSGFSLSTSGTCVSWIRQPPGKALEWLATICWEDSKGYNPSLKSRLTISKDTSKNQAVLTMTNMDPVDTATYYCARREDSGYFWFPYWGQGTLVTVSSASTKGPSVFPLAPSSKSTSGGTAALGCLVKDYFPEPVTVSWNSGALTSGVHTFPAVLQSSGLYSLSSVVTVPSSSLGTQTYICNVNHKPSNTKVDKKVEPKSCDKTHTCPPCPAPELLGPSVFLFPPKPKDTLMISRTPEVTCVVVDVSHEDPEVKFNWYVDGVEVHNAKTKPREEQYNSTYRVVSVLTVLHQDWLNGKEYKCKVSNKALPAPIEKTISKAKGQPREPQVYTLPPSREEMTKNQVSLTCLVKGFYPSDIAVEWESNGQPENNYKTTPPVLDSDGSFFLYSKLTVDKSRWQQGNVFSCSVMHEALHNHYTQKSLSLSPGGGGGSGGGGSGGGGSGGGGSEVQLVESGGGLVQPGGSLRLSCAASGFTFTNYGLHWVRQAPGKGLEWVSSISPSGGVTYYRDSVKGRFTISRDNSKNTLYLQMNSLRAEDTAVYYCAKPFLGWGGANWIAHWGQGTLVTVSSGGGGSGGGGSGGGGSGGGGSDIQMTQSPSSLSASVGDRVTITCLASEDISNDLAWYQQKPGKAPKLLIYFVDRLLDGVPSRFSGSGSGTDFTLTISSLQPEDFATYYCQQSYKYPPTFGQGTKLEIK
light: B2 light
notes: Ly516 HC (IgG1 mutated Fc)-TM559 scFv VH-VL + Ly516 LC
binds: all assays above

B4: Ly607 (bispecific antibody, human IgG1, kappa)
heavy: QVTLKESGPALVKPTQTLTLTCTFSGFSLSTSGTCVSWIRQPPGKALEWLATICWEDSKGYNPSLKSRLTISKDTSKNQAVLTMTNMDPVDTATYYCARREDSGYFWFPYWGQGTLVTVSSASTKGPSVFPLAPSSKSTSGGTAALGCLVKDYFPEPVTVSWNSGALTSGVHTFPAVLQSSGLYSLSSVVTVPSSSLGTQTYICNVNHKPSNTKVDKKVEPKSCDKTHTCPPCPAPELLGPSVFLFPPKPKDTLMISRTPEVTCVVVDVSHEDPEVKFNWYVDGVEVHNAKTKPREEQYNSTYRVVSVLTVLHQDWLNGKEYKCKVSNKALPAPIEKTISKAKGQPREPQVYTLPPSREEMTKNQVSLTCLVKGFYPSDIAVEWESNGQPENNYKTTPPVLDSDGSFFLYSKLTVDKSRWQQGNVFSCSVMHEALHNHYTQKSLSLSPGGGGGSGGGGSGGGGSGGGGSQVQLVESGGGLVQPGGSLKLSCATSGFNFNDYFMNWVRQASGKGLEWVGQIRNKNYNYATYYTESLEGRVTISRDDSKNTAYLQMNSLKTEDTAVYYCTSYYYDGFADYFDYWGQGTTVTVSSGGGGSGGGGSGGGGSGGGGSDIQMTQSPSSLSASVGDRVTITCKASQNIYIYLNWYQQKPGKAPKLLIYNTNNLQTGVPSRFSGSGSGTDFTLTISSLQPEDFATYYCLQHSSRRTFGGGTKVEIK
light: B2 light
notes: Ly516 HC (IgG1 mutated Fc)-TM740 scFv VH-VL + Ly516 LC
binds: all assays above

B5: Ly608 (bispecific antibody, human IgG1, kappa)
heavy: QVTLKESGPALVKPTQTLTLTCTFSGFSLSTSGTCVSWIRQPPGKALEWLATICWEDSKGYNPSLKSRLTISKDTSKNQAVLTMTNMDPVDTATYYCARREDSGYFWFPYWGQGTLVTVSSASTKGPSVFPLAPSSKSTSGGTAALGCLVKDYFPEPVTVSWNSGALTSGVHTFPAVLQSSGLYSLSSVVTVPSSSLGTQTYICNVNHKPSNTKVDKKVEPKSCDKTHTCPPCPAPELLGPSVFLFPPKPKDTLMISRTPEVTCVVVDVSHEDPEVKFNWYVDGVEVHNAKTKPREEQYNSTYRVVSVLTVLHQDWLNGKEYKCKVSNKALPAPIEKTISKAKGQPREPQVYTLPPSREEMTKNQVSLTCLVKGFYPSDIAVEWESNGQPENNYKTTPPVLDSDGSFFLYSKLTVDKSRWQQGNVFSCSVMHEALHNHYTQKSLSLSPGGGGGSGGGGSGGGGSGGGGSDIQMTQSPSSLSASVGDRVTITCLASEDISNDLAWYQQKPGKAPKLLIYFVDRLLDGVPSRFSGSGSGTDFTLTISSLQPEDFATYYCQQSYKYPPTFGQGTKLEIKGGGGSGGGGSGGGGSGGGGSEVQLVESGGGLVQPGGSLRLSCAASGFTFTNYGLHWVRQAPGKGLEWVSSISPSGGVTYYRDSVKGRFTISRDNSKNTLYLQMNSLRAEDTAVYYCAKPFLGWGGANWIAHWGQGTLVTVSS
light: B2 light
notes: Ly516 HC (IgG1 mutated Fc)-TM559 scFv VL-VH + Ly516 LC
binds: all assays above
